# Reference: patent US20040014178A1 (published 2004)
# B1: vWb (von Willebrand factor binding protein) from S. aureus, wild type secreted protein (other)
# chain: VVSGEKNPYVSESLKLTNNKNKSRTVEEYKKSLDDLIWSFPNLDNERFDNPEYKEAMKKYQQRFMAEDEALKKFFSEEKKIKNGNTDNLDYLGLSHERYESVFNTLKKQSEEFLKEIEDIKKDNPELKDFNEEEQLKCDLELNKLENQILMLGKTFYQNYRDDVESLYSKLDLIMGYKDEERANKKAVNKRMLENKKEDLETIIDEFFSDIDKTRPNNIPVLEDEKQEEKNHKNMAQLKSDTEAAKSDESKRSKRSKRSLNTQNHKPASQEVSEQQKAEYDKRAEERKARFLDNQKIKKTPVVSLEYDFEHKQRIDNENDKKLVVSAPTKKPTSPTTYTETTTQVPMPTVERQTQQQIIYNAPKQLAGLNGESHDFTTTHQSPTTSNHTHNNVVEFEETSALPGRKSGSLVGISQIDSSHLTEREKRVIKREHVREAQKLVDNYKDTHSYKDRINAQQKVNTLSEGHQKRFNKQINKVYNGK
# notes: Purified from the culture supernatant of S. aureus Newman with the Eap gene deleted; also called wild type vWb; purified secreted vWb protein
# B2: phagemid clone SlvW2 (vWbl fragment displayed on phagemid particles) (other)
# chain: GNEVQETEEGTHDAPGIIGDKWQYTGQTTTEDGITTHIYQRIQSEIPNEAPQETPVALEVTRYVDSEGN
# Assays:
# [1] = target: T1, human recombinant von Willebrand factor (human, UniProt P04275 764-2813); assay: blot of vWb on nitrocellulose probed with 125I-labelled vWF
# T1 construct: also called rvWf; rvWF
# [2] = target: T1, human recombinant von Willebrand factor; assay: phagemid clone isolated by panning the S. lugdunensis library against vWF
Binder,binding result [1],binding result [2]
B1,binds,
B2,,binds
